# Data taken from US20190359687A1 (Bayer, published 2019).
# Numbering of substitutions follows the chain as printed. Names and notes keep the numbering of the source.
# T1: human glycophorin A on human red blood cells or red blood cell membranes (human, UniProt P02724 20-150)
# T1 construct: whole, on cells; also called hRBC; human RBC membranes
# T1 sequence (looked up): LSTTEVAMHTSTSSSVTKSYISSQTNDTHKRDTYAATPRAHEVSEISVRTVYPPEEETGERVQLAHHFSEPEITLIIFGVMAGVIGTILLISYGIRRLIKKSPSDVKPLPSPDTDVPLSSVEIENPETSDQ
# T2: recombinant human glycophorin A ectodomain protein (human, UniProt P02724 20-91)
# T2 construct: 72 amino acids of the extracellular region; also called Hu-rec GPA
# T2 sequence: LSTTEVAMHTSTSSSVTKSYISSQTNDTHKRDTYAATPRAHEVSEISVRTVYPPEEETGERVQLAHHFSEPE
# T3: native human glycophorin A protein (human, UniProt P02724 20-150)
# T3 construct: mature; also called Hu-nat GPA
# T3 sequence (looked up): T1 sequence (looked up)
# B1: TPP-7790, affinity matured 6C12 Fab (Fab, V domains shown)
# VH: EVQLVQSGAEVKKPGASVKVSCKASGYTFTTYAIHWVRQAPGQGLEWMGYINPSSGYTRYNPKFKHRVTMTRDKSTSTAYMELRSLRSDDTAVYYCWTGTRDYWGQGTTVTVSS
# VL: DIQLTQSPSFLSASVGDRVTITCRASSSVRYIYWFQQKPGKAPKLLIYATSFLQSGVPSRFSGSGSGTEYTLTISSLQPEDFATYYCHQRNSFPYTFGQGTKLEIK
# notes: Tested as Fab with a 6xHIS tag
# B2: TPP-5906, humanized and germlined 6C12 Fab; VL: (S24R, A26S, S49A, P54Q, F95Y); VH: (I48M, D56G, D66G, L70M, T72R) (Fab, V domains shown)
# VH: B1 VH with A33T, H66G, W97Q
# VL: DIQLTQSPSFLSASVGDRVTITCRASSSVSYIYWFQQKPGKAPKLLIYATSTLQSGVPSRFSGSGSGTEYTLTISSLQPEDFATYYCHQRNSFPYTFGQGTKLEIKR
# notes: The text says that a 6xHIS tag is present on the Fabs in the peptide ELISA; it is not in the printed chains
# How the values were obtained:
# [1] = target: T1, human glycophorin A on human red blood …; experiment: Fab on intact human RBC, unbound Fab by ELISA; 5 min after 200-fold dilution
# Experimental: (§1) The binding of affinity matured Fab antibodies to intact human RBC was also measured. Human RBC were isolated from fresh anti-coagulated normal human blood by centrifugation through a ficol gradient and washing in PBS buffer. RBC diluted to 1/10th of normal hematocrit were incubated with purified Fab antibodies at a final concentration of 7 ug/ml for 1 hour at room temperature on a rotating shaker after which a sample was taken and the RBC were pelleted by centrifugation and the supernatant was collected. The remaining RBC suspension was diluted 200-fold in PBS buffer and incubated for a total of 2 hours at room temperature on a rotating shaker and samples were removed at 0, 5 min, 20 min, 1 h and 2 h and the RBC pelleted and the supernatant collected. The amount of Fab in the supernatants was then measured using an ELISA assay and the results used to calculate the percentage of the input Fab that was bound to the RBC. […] The percentage that remains bound after 200-fold dilution of the RBC suspension is an indication of the overall strength of the binding to human RBC.
# [2] = target: T4, Cynomolgus monkey glycophorin A on Cynomolgus monkey red blood cells or red blood cell membranes (Cynomolgus monkey); experiment: Fab on intact cyno RBC, unbound Fab by ELISA; 20 min after 200-fold dilution
# T4 construct: whole, on cells; also called Cyno RBC; Cynomolgus monkey RBC membranes
# Experimental: (§2) The binding of affinity matured Fab antibodies to intact Cynomolgus monkey RBC was measured. Cynomolgus monkey RBC were isolated from fresh anti-coagulated blood by centrifugation through a ficol gradient and washing in PBS buffer. RBC diluted to 1/10th of normal hematocrit were incubated with the Fab at a final concentration of 7 ug/ml for 1 hour at room temperature on a rotating shaker after which a sample was taken and the RBC were pelleted by centrifugation and the supernatant was collected. The remaining RBC suspension was diluted 200-fold in PBS buffer and incubated for a total of 2 hours at room temperature on a rotating shaker and samples were removed at 0, 5 min, 20 min, 1 h and 2 h and the RBC pelleted and the supernatant collected. […] The amount of Fab in the supernatants was then measured using an ELISA assay and the results used to calculate the percentage of the input Fab that was bound to the RBC.
# [3] = target: T1, human glycophorin A on human red blood …; experiment: SPR (Biacore), Fab on human RBC membranes; * not accurate, instrument limit
# Experimental: (§3) Kinetic analysis of the antibody binding to human red blood cell membranes was also performed using surface plasmon resonance (SPR) using a Biacore instrument. In this assay membranes prepared from human red blood cells were attached to a L1 sensor matrix and antibodies were flowed over the RBC membranes.
# (§4) The binding kinetics of the affinity matured Fab antibodies was also measured.
# [4] = target: T1, human glycophorin A on human red blood …; experiment: Fab on intact human RBC, unbound Fab by ELISA; 0 min after 200-fold dilution
# Experimental: as §1
# [5] = target: T4, Cynomolgus monkey glycophorin A on …; experiment: Fab on intact cyno RBC, unbound Fab by ELISA; 60 min after 200-fold dilution
# Experimental: as §2
# [6] = target: T4, Cynomolgus monkey glycophorin A on …; experiment: Fab on intact cyno RBC, unbound Fab by ELISA; 0 min after 200-fold dilution
# [7] = target: T1, human glycophorin A on human red blood …; experiment: SPR (Biacore), Fab on human RBC membranes; T½ = 0.69/kd; * not accurate
# Experimental: as §3, §4
# [8] = target: T4, Cynomolgus monkey glycophorin A on …; experiment: Fab on intact cyno RBC, unbound Fab by ELISA; 120 min after 200-fold dilution
# [9] = target: T4, Cynomolgus monkey glycophorin A on …; experiment: Fab on intact cyno RBC, unbound Fab by ELISA; 5 min after 200-fold dilution
# Experimental: as §2
# [10] = target: T4, Cynomolgus monkey glycophorin A on …; experiment: Fab 7 ug/ml on intact cyno RBC, unbound Fab by ELISA; pre-dilution
# Experimental: as §2
# [11] = target: T2, recombinant human glycophorin A …; experiment: ELISA, Fab on coated recombinant human GPA ectodomain
# [12] = target: T1, human glycophorin A on human red blood …; experiment: SPR (Biacore), Fab over human RBC membranes, 1:1 fit; * slight deviation possible
# Experimental: as §3
# [13] = target: T4, Cynomolgus monkey glycophorin A on …; experiment: ELISA, Fab on coated cyno RBC membranes
# [14] = target: T1, human glycophorin A on human red blood …; experiment: ELISA, Fab on coated human RBC membranes
# [15] = target: T3, native human glycophorin A protein; experiment: ELISA, Fab on coated native human GPA
# [16] = target: T1, human glycophorin A on human red blood …; experiment: SPR (Biacore), Fab on human RBC membranes; T½ = 0.69/kd
# Experimental: as §3, §4
# [17] = target: T5, Cynomolgus monkey recombinant glycophorin A ectodomain (Cynomolgus monkey); experiment: ELISA, Fab on coated recombinant cyno GPA ectodomain
# T5 construct: extracellular domain
Binder,percentage of input antibody bound [1],percentage of input antibody bound [2],Kd [3],koff [3],percentage of input antibody bound [4],percentage of input antibody bound [5],percentage of input antibody bound [6],Estimated T½ [7],percentage of input antibody bound [8],percentage of input antibody bound [9],percentage of input antibody bound [10],binding in ELISA relative to parental Fab [11],Kd [12],koff [12],kon [12],binding in ELISA relative to parental Fab [13],binding in ELISA relative to parental Fab [14],binding in ELISA relative to parental Fab [15],Estimated T½ [16],binding in ELISA relative to parental Fab [17]
B1,89%,90%,< 0.00233 nM,< 2e-05 s⁻¹,88%,87%,87%,596 days,85%,90%,94%,,,,,,,,,
B2,28%,,,,82%,,,,,,,7.2 relative to parental Fab,0.9 nM,0.0034 s⁻¹,4e+06 M⁻¹ s⁻¹,2.5 relative to parental Fab,93.5 relative to parental Fab,12.9 relative to parental Fab,0.00139 days,1.4 relative to parental Fab
